B1: Zinc finger HIT domain-containing protein 1 (Homo sapiens), O43257 (parent)
chain: MVEKKTSVRSQDPGQRRVLDRAARQRRINRQLEALENDNFQDDPHAGLPQLGKRLPQFDDDADTGKKKKKTRGDHFKLRFRKNFQALLEEQNLSVAEGPNYLTACAGPPSRPQRPFCAVCGFPSPYTCVSCGARYCTVRCLGTHQETRCLKWTV

Variants of: B1
Settings: with arp6_human ACTR6, Q9GZN1
Sequence of arp6_human ACTR6, Q9GZN1 (Q9GZN1 whole entry): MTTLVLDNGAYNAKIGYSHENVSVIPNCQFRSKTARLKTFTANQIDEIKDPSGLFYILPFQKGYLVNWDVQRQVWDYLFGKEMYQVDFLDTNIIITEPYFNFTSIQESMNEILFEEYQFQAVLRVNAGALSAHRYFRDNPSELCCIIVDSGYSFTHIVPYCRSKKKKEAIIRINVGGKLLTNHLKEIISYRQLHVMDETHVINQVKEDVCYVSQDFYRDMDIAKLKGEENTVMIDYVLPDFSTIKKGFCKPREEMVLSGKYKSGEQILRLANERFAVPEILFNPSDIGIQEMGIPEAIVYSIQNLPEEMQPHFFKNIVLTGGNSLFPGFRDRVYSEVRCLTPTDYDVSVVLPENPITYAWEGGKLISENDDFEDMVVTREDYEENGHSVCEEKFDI

| effect of a mutation on the interaction | Variant |
| --- | --- |
| disrupting interaction | MVEKKTSVRSQDPGQRRVLDRAARQRRINRQLEALENDNFQDDPHAGLPQLGKRLPQFDDDADTGKKKKKTRGDHFKLRFRKNFQALLEEQNLSVAEGPNYLAACAGPPSRPQRPFCAVCGFPSPYTCVSCGARYCTVRCLGTHQETRCLKWTV |
| disrupting interaction | MVEKKTSVRSQDPGQRRVLDRAARQRRINRQLEALENDNFQDDPHAGLPQLGKRLPQFDDDADAGKKKKKTRGDHFKLRFRKNFQALLEEQNLSVAEGPNYLTACAGPPSRPQRPFCAVCGFPSPYTCVSCGARYCTVRCLGTHQETRCLKWTV |
| disrupting interaction | MVEKKTSVRSQDPGQRRVLDRAARQRRINRQLEALENDNFQDDPHAGLPQLGKRLPQFDDDADTGKKKKKARGDHFKLRFRKNFQALLEEQNLSVAEGPNYLTACAGPPSRPQRPFCAVCGFPSPYTCVSCGARYCTVRCLGTHQETRCLKWTV |
| disrupting interaction | MVEKKASVRSQDPGQRRVLDRAARQRRINRQLEALENDNFQDDPHAGLPQLGKRLPQFDDDADTGKKKKKTRGDHFKLRFRKNFQALLEEQNLSVAEGPNYLTACAGPPSRPQRPFCAVCGFPSPYTCVSCGARYCTVRCLGTHQETRCLKWTV |

From IntAct's records for PubMed 20473270
